T1: IFN-αF (human, UniProt P01568 24-189)
T1 construct: Recombinant, HEK293; also called IFN-α21
T1 chain: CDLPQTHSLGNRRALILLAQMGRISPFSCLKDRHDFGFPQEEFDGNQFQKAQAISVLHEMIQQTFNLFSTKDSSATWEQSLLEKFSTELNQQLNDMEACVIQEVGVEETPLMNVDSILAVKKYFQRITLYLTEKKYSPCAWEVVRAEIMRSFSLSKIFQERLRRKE

T2: IFN-αF (human, UniProt P01568 24-189)
T2 construct: also called IFN-α21; alpha F
T2 chain: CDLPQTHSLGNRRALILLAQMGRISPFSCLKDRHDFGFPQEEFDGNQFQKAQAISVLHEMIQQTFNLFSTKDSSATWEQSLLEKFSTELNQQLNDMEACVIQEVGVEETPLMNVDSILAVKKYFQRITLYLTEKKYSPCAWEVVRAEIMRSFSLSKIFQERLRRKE


How the values were obtained:
[1] = target: T3, human IFN-ω (human, UniProt P05000 24-195); assay: ProteOn SPR, cell supernatant;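 further: each binding measurement used just a single antigen concentration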
T3 construct: Recombinant, HEK293; also called interferon omega

[2] = target: T4, IFN-αC (human, UniProt P01566 24-189); assay: ProteOn SPR, cell supernatant;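 further: each binding measurement used just a single antigen concentration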
T4 construct: Recombinant, HEK293; also called IFN-α10

[3] = target: T1, IFN-αF; assay: ProteOn SPR, cell supernatant;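 further: each binding measurement used just a single antigen concentration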
[4] = target: T5, IFN-αJ1 (human, UniProt P01567 24-189); assay: ProteOn SPR, cell supernatant;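 further: each binding measurement used just a single antigen concentration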
T5 construct: Recombinant, HEK293; also called IFN-α7

[5] = target: T6, IFN-α4a (human, UniProt P05014 24-189); assay: ProteOn SPR, cell supernatant;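 further: each binding measurement used just a single antigen concentration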
T6 construct: Recombinant, HEK293; also called IFN-αM1

[6] = target: T7, IFN-αG (human, UniProt P01569 24-189); assay: ProteOn SPR, cell supernatant;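 further: each binding measurement used just a single antigen concentration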
T7 construct: Recombinant, HEK293; also called IFN-α5

[7] = target: T8, IFN-αWA (human, UniProt P05015 24-189); assay: ProteOn SPR, cell supernatant
T8 construct: Recombinant, HEK293; also called IFN-α16

[8] = target: T9, human IFN-ω (human, UniProt P05000 24-195); assay: ProteOn, one antigen concentration
T9 construct: also called interferon omega

[9] = target: T10, IFN-αC (human, UniProt P01566 24-189); assay: ProteOn, one antigen concentration
T10 construct: also called IFN-α10; alpha C

[10] = target: T2, IFN-αF; assay: ProteOn, one antigen concentration
[11] = target: T11, IFN-αJ1 (human, UniProt P01567 24-189); assay: ProteOn, one antigen concentration
T11 construct: also called IFN-α7; alpha J1

[12] = target: T12, IFN-α4a (human, UniProt P05014 24-189); assay: ProteOn, one antigen concentration
T12 construct: also called IFN-αM1

[13] = target: T13, IFN-αG (human, UniProt P01569 24-189); assay: ProteOn, one antigen concentration
T13 construct: also called IFN-α5; alpha G

[14] = target: T14, IFN-αWA (human, UniProt P05015 24-189); assay: ProteOn, one antigen concentration
T14 construct: also called IFN-α16; alpha WA

Binder | Kd [1] [nM] | Kd [2] [nM] | Kd [3] [nM] | Kd [4] [nM] | Kd [5] [nM] | Kd [6] [nM] | Kd [7] [nM] | Kd [8] [nM] | Kd [9] [nM] | Kd [10] [nM] | Kd [11] [nM] | Kd [12] [nM] | Kd [13] [nM] | Kd [14] [nM]
IFWM3379 (antibody, IgG1, V domains shown, mAb; IgG1/kappa said of the parent and of selected mAbs; also called IFWB3114) VH: EVQLVQSGAEVKKPGESLKISCKGSGYSFTSYWIGWVRQMPGKGLEWMGIIDPSDSDTRYSPSFQGQVTISADKSISTAYLQWSSLKASDTAMYYCARHPGLAWAPDFDYWGQGTLVTVSS VL: DIQMTQSPSSLSASVGDRVTITCRASQSIDGSLNWYQQKPGKAPKLLIYFASSLQSGVPSRFSGSGSGTDFTLTISSLQPEDFATYYCQQSYDFPLTFGQGTKVEIK | 0.015 | 0.013 | 0.013 | 0.033 | 0.072 | 0.013 | 0.023 |  |  |  |  |  |  | 
IFWM3293 (antibody, IgG1, V domains shown, mAb; IgG1/kappa said of the parent and of selected mAbs; also called IFWB3028) VH: EVQLVQSGAEVKKPGESLKISCKGSGYSFTSYWIGWVRQMPGKGLEWMGIIDPSDSDTRYSPSFQGQVTISADKSISTAYLQWSSLKASDTAMYYCARHPGLAWAPDFDYWGQGTLVTVSS VL: DIQMTQSPSSLSASVGDRVTITCRASQSIDEFLNWYQQKPGKAPKLLIYFASSLQSGVPSRFSGSGSGTDFTLTISSLQPEDFATYYCQQAHSFPLTFGQGTKVEIK | 0.029 | 0.025 | 0.017 | 0.062 | 0.166 | 0.037 | 0.046 |  |  |  |  |  |  | 
IFWM3335 (antibody, V domains shown, VH IFWH591, VL IFWL1084; converted mAb; also called IFWB3070) VH: EVQLVQSGAEVKKPGESLKISCKGSGYSFTSYWIGWVRQMPGKGLEWMGIIDPSDSDTRYSPSFQGQVTISADKSISTAYLQWSSLKASDTAMYYCARHPGLNWAPDFDYWGQGTLVTVSS VL: DIQMTQSPSSLSASVGDRVTITCRASQSINYLNWYQQKPGKAPKLLIYGASSLQSGVPSRFSGSGSGTDFTLTISSLQPEDFATYYCQQSHDWPITFGQGTKVEIK |  |  |  |  |  |  |  | 0.042 | 0.049 | 0.061 | 0.245 | 0.336 | 0.077 | 0.137

Results, then the binder that gave them:

Kd [1] [nM] | Kd [2] [nM] | Kd [3] [nM] | Kd [4] [nM] | Kd [5] [nM] | Kd [6] [nM] | Kd [7] [nM] | Kd [8] [nM] | Kd [9] [nM] | Kd [10] [nM] | Kd [11] [nM] | Kd [12] [nM] | Kd [13] [nM] | Kd [14] [nM] | Binder
0.025 | 0.046 | 0.032 | 0.076 | 0.088 | 0.07 | 0.059 |  |  |  |  |  |  |  | IFWM3380 (antibody, IgG1, V domains shown, mAb; IgG1/kappa said of the parent and of selected mAbs; also called IFWB3115) VH: EVQLVQSGAEVKKPGESLKISCKGSGYSFTSYWIGWVRQMPGKGLEWMGIIDPSDSDTRYSPSFQGQVTISADKSISTAYLQWSSLKASDTAMYYCARHPGLAWAPDFDYWGQGTLVTVSS VL: DIQMTQSPSSLSASVGDRVTITCRASQSINRFLNWYQQKPGKAPKLLIYAASSLQSGVPSRFSGSGSGTDFTLTISSLQPEDFATYYCQQAIDLPFTFGQGTKVEIK
0.045 | 0.079 | 0.092 | 0.121 | 0.171 | 0.053 | 0.067 |  |  |  |  |  |  |  | IFWM3381 (antibody, IgG1, V domains shown, mAb; IgG1/kappa said of the parent and of selected mAbs; also called IFWB3116) VH: EVQLVQSGAEVKKPGESLKISCKGSGYSFTSYWIGWVRQMPGKGLEWMGIIDPSDSDTRYSPSFQGQVTISADKSISTAYLQWSSLKASDTAMYYCARHPGLAWAPDFDYWGQGTLVTVSS VL: DIQMTQSPSSLSASVGDRVTITCRASQSIGSFLNWYQQKPGKAPKLLIYFASSLQSGVPSRFSGSGSGTDFTLTISSLQPEDFATYYCQQSYSIPITFGQGTKVEIK
0.062 |  | 0.028 | 0.078 | 0.195 | 0.067 | 0.076 |  |  |  |  |  |  |  | IFWM3401 (antibody, IgG1, V domains shown, mAb; IgG1/kappa said of the parent and of selected mAbs; also called IFWB3136) VH: EVQLVQSGAEVKKPGESLKISCKGSGYSFTSYWIGWVRQMPGKGLEWMGIIDPSDSDTRYSPSFQGQVTISADKSISTAYLQWSSLKASDTAMYYCARHPGLAWAPDFDYWGQGTLVTVSS VL: DIQMTQSPSSLSASVGDRVTITCRASQSITNHLNWYQQKPGKAPKLLIYFASSLQSGVPSRFSGSGSGTDFTLTISSLQPEDFATYYCQQAHNFPLTFGQGTKVEIK

— US20150368338A1 (Janssen / Centocor, published 2015)
